From the supplement of paper PMC9112550, “Optimization of the antimicrobial peptide Bac7 by deep mutational scanning” (BMC Biology, 2022)

Test system: Escherichia coli TOP10
Test: shrunken log2 fold change of peptide-encoding DNA abundance (4.5 h post-induction vs induction); higher = less antimicrobial activity (less host growth inhibition)
Details: time post-induction: 4.5 h; library: site-saturation at positions 5, 18, 19, 20
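Note: peptides expressed intracellularly from a pBAD plasmid library in pooled LB shake-flask culture, induced with 0.3% L-arabinose, DNA abundance read by NGS, three biological replicates, DESeq2 with apeglm shrinkage.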

Point of comparison: RRIRARPPRLPRPRPRPTDEPRP, “shrunken log2 fold change” value 0.594. Against it:
- RRIRARPPRLPRPRPRPRESPRP — lower, 0.198
- RRIRHRPPRLPRPRPRPFDGPRP — lower, -0.258
- RRIRQRPPRLPRPRPRPKMWPRP — higher, 1
- RRIRHRPPRLPRPRPRPRQWPRP — within 0.2 log units, 0.408
- RRIRERPPRLPRPRPRPLIMPRP — lower, -0.781
- RRIRSRPPRLPRPRPRPNMCPRP — lower, -0.138
- RRIRNRPPRLPRPRPRPMYTPRP — lower, -0.48
- RRIRFRPPRLPRPRPRPYIWPRP — lower, -0.425
- RRIRQRPPRLPRPRPRPKHYPRP — lower, -0.223
- RRIRVRPPRLPRPRPRPMSRPRP — lower, 0.0217
- RRIRLRPPRLPRPRPRPAGEPRP — lower, -0.0968
- RRIRERPPRLPRPRPRPLFVPRP — lower, -0.799
- RRIRTRPPRLPRPRPRPNPEPRP — lower, -0.101
- RRIRSRPPRLPRPRPRPVQPPRP — lower, 0.107
- RRIRVRPPRLPRPRPRPMNIPRP — lower, -0.604
- RRIRIRPPRLPRPRPRPFNHPRP — lower, -0.0691
- RRIRDRPPRLPRPRPRPRFPPRP — higher, 1.75
- RRIRYRPPRLPRPRPRPDDFPRP — lower, -0.0153
- RRIRIRPPRLPRPRPRPKAGPRP — lower, 0.0458
- RRIRVRPPRLPRPRPRPQQLPRP — lower, -0.0555
- RRIRVRPPRLPRPRPRPFQVPRP — lower, -0.0887
- RRIRRRPPRLPRPRPRPSWNPRP — lower, -0.157
- RRIRARPPRLPRPRPRPSSFPRP — lower, -0.196
- RRIRDRPPRLPRPRPRPFTGPRP — lower, -0.267
- RRIRYRPPRLPRPRPRPNMAPRP — lower, -0.00884
- RRIRRRPPRLPRPRPRPQQVPRP — lower, -0.0275
- RRIRMRPPRLPRPRPRPVWSPRP — within 0.2 log units, 0.709
- RRIRLRPPRLPRPRPRPIEKPRP — lower, 0.000506
- RRIRERPPRLPRPRPRPTYDPRP — lower, -0.528
- RRIRLRPPRLPRPRPRPVLVPRP — lower, -0.161
- RRIRKRPPRLPRPRPRPHVHPRP — lower, -0.105
- RRIRVRPPRLPRPRPRPRCHPRP — lower, 0.115
- RRIRHRPPRLPRPRPRPKEAPRP — lower, 0.00884
- RRIRERPPRLPRPRPRPSNPPRP — lower, -0.681
- RRIRKRPPRLPRPRPRPWFWPRP — within 0.2 log units, 0.442
- RRIRGRPPRLPRPRPRPKFYPRP — lower, -0.278
- RRIRCRPPRLPRPRPRPRYCPRP — lower, -0.654
- RRIRQRPPRLPRPRPRPSEPPRP — lower, 0.0286
- RRIRTRPPRLPRPRPRPEYFPRP — lower, -0.186
- RRIRIRPPRLPRPRPRPGNWPRP — lower, -0.35
- RRIRIRPPRLPRPRPRPGHAPRP — lower, -0.0343
- RRIRNRPPRLPRPRPRPDVQPRP — lower, -0.13
- RRIRNRPPRLPRPRPRPHMNPRP — lower, -0.572
- RRIRKRPPRLPRPRPRPYYPPRP — lower, -0.227
- RRIRMRPPRLPRPRPRPDCLPRP — higher, 1.54
- RRIRQRPPRLPRPRPRPHLCPRP — lower, 0.0292
- RRIRIRPPRLPRPRPRPALFPRP — lower, -0.139
- RRIRVRPPRLPRPRPRPQPKPRP — lower, 0.0199
- RRIRMRPPRLPRPRPRPEWPPRP — lower, 0.0994
- RRIRNRPPRLPRPRPRPPCCPRP — lower, 0.123
- RRIRWRPPRLPRPRPRPGIIPRP — lower, -0.0357
- RRIRGRPPRLPRPRPRPVYQPRP — lower, 0.0322
- RRIRLRPPRLPRPRPRPWSIPRP — lower, -0.0808
- RRIRDRPPRLPRPRPRPEPLPRP — lower, 0.0701
- RRIRARPPRLPRPRPRPQMGPRP — lower, -0.0713
- RRIRVRPPRLPRPRPRPRLAPRP — within 0.2 log units, 0.684
- RRIRARPPRLPRPRPRPYWSPRP — lower, -0.186
- RRIRVRPPRLPRPRPRPVTYPRP — lower, -0.288
- RRIRIRPPRLPRPRPRPGKFPRP — lower, -0.0679
- RRIRTRPPRLPRPRPRPTEDPRP — lower, 0.196
- RRIRERPPRLPRPRPRPLMLPRP — lower, -0.813
- RRIRGRPPRLPRPRPRPRELPRP — higher, 1.31
- RRIRARPPRLPRPRPRPDDEPRP — higher, 1.43
- RRIRFRPPRLPRPRPRPQGWPRP — within 0.2 log units, 0.466
- RRIRCRPPRLPRPRPRPKAPPRP — lower, 0.337
- RRIRNRPPRLPRPRPRPTARPRP — lower, 0.198
- RRIRRRPPRLPRPRPRPLMIPRP — lower, -0.258
- RRIRSRPPRLPRPRPRPECHPRP — within 0.2 log units, 0.411
- RRIRQRPPRLPRPRPRPPIVPRP — lower, -0.015
- RRIRGRPPRLPRPRPRPIWIPRP — lower, 0.0517
- RRIRCRPPRLPRPRPRPENYPRP — lower, -0.474
- RRIRPRPPRLPRPRPRPDLRPRP — lower, -0.124
- RRIRNRPPRLPRPRPRPVGIPRP — lower, -0.2
- RRIRYRPPRLPRPRPRPCWCPRP — lower, -0.0193
- RRIRGRPPRLPRPRPRPPISPRP — lower, 0.163
- RRIRCRPPRLPRPRPRPWLRPRP — lower, -0.0383
- RRIRGRPPRLPRPRPRPGIWPRP — within 0.2 log units, 0.758
- RRIRPRPPRLPRPRPRPSADPRP — lower, -0.0256
- RRIRERPPRLPRPRPRPISFPRP — lower, -0.441
- RRIRWRPPRLPRPRPRPDEDPRP — lower, 0.299
- RRIRWRPPRLPRPRPRPGKGPRP — lower, -0.0357
- RRIRCRPPRLPRPRPRPIHHPRP — lower, -0.481
- RRIRKRPPRLPRPRPRPCHEPRP — lower, 0.00408
- RRIRYRPPRLPRPRPRPPQYPRP — lower, -0.795
- RRIRGRPPRLPRPRPRPHTNPRP — lower, 0.221
- RRIRIRPPRLPRPRPRPADYPRP — lower, -0.635
- RRIRNRPPRLPRPRPRPIRLPRP — lower, -0.0969
- RRIRMRPPRLPRPRPRPVYHPRP — lower, -0.435
- RRIRSRPPRLPRPRPRPCQHPRP — lower, -0.128
- RRIRDRPPRLPRPRPRPRVCPRP — lower, 0.372
- RRIRPRPPRLPRPRPRPDSEPRP — lower, -0.208
- RRIRTRPPRLPRPRPRPQNCPRP — lower, -0.373
- RRIRERPPRLPRPRPRPMTKPRP — lower, -0.0224
- RRIRFRPPRLPRPRPRPACYPRP — lower, -0.066
- RRIRKRPPRLPRPRPRPEILPRP — within 0.2 log units, 0.728
- RRIRYRPPRLPRPRPRPRARPRP — higher, 2.17
- RRIRERPPRLPRPRPRPAFCPRP — lower, -0.21
- RRIRNRPPRLPRPRPRPAQHPRP — lower, 0.00182
- RRIRVRPPRLPRPRPRPRIFPRP — lower, 0.137
- RRIRGRPPRLPRPRPRPQQIPRP — within 0.2 log units, 0.457
- RRIRRRPPRLPRPRPRPVTVPRP — lower, 0.124
- RRIRDRPPRLPRPRPRPWYAPRP — lower, 0.00564
- RRIRWRPPRLPRPRPRPQEWPRP — lower, 0.248
- RRIRDRPPRLPRPRPRPYLCPRP — lower, -0.148
- RRIRFRPPRLPRPRPRPSWKPRP — lower, 0.206
- RRIRKRPPRLPRPRPRPCVVPRP — lower, 0.0713
- RRIRHRPPRLPRPRPRPEAKPRP — lower, -0.0228
- RRIRARPPRLPRPRPRPKTQPRP — lower, 0.0119
